Source: US20190233494A1 (Sanofi, published 2019)
Starred links: 1 amine or outer side, 2 acyl side, 3 side chain; linkers in the order of their positions; H or OH if unused. Non-standard residues stand in square brackets, D forms with d. Groups on a side chain read outwards from the residue. *: point of attachment. TTDS = 4-[3-[2-[2-(3-aminopropoxy)ethoxy]ethoxy]propylamino]-4-oxo-butanoyl; γGlu = O=C(O)[C@H](CCC(=O)[*:2])N[*:1]; Stearoyl = CCCCCCCCCCCCCCCCCC(=O)*; Palmitoyl = CCCCCCCCCCCCCCCC(=O)*; αMeK = C[C@](N)(CCCCN)C(=O)O; hLys = NCCCCC[C@H](N)C(=O)O; AEEA = NCCOCCOCC(=O)O; Aib = CC(C)(N)C(=O)O

T1: RXFP1 receptor (endogenous, on OVCAR5 cells) (UniProt Q9HBX9 1-757, limits assumed)
T1 sequence (looked up): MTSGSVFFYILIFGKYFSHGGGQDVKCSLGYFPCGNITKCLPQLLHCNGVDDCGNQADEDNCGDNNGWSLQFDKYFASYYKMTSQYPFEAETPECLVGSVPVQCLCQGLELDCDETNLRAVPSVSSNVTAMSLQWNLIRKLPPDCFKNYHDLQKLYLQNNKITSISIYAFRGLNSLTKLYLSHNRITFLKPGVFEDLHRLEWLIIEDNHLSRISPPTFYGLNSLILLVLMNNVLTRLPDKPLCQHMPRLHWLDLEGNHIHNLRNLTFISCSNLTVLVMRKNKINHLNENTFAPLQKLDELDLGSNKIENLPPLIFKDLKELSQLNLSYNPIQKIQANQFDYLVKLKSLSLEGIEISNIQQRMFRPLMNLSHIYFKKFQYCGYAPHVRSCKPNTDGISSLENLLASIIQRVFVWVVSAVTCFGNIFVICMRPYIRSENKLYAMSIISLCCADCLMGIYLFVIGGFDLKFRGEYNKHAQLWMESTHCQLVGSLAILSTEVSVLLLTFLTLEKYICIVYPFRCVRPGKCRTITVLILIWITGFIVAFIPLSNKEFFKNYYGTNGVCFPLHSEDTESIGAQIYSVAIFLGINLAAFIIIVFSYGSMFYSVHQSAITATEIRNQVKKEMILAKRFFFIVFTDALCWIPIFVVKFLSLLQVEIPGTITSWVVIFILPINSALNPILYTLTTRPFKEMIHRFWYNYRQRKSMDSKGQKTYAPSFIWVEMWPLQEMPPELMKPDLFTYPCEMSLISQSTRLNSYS


Target: T1, RXFP1 receptor (endogenous, on OVCAR5 …)
Assay: cell-based or functional assay

Binder | EC50 (nM), OVCAR 5 cells (cAMP) | EMax, OVCAR 5 cells (cAMP)
Ac-LEGREKVRAK(Ac)I[Aib][Aib]EGK([TTDS-TTDS-TTDS-γGlu-γGlu-γGlu-Palmitoyl])STW[Aib]KRAK(Ac)-NH2 [peptide of SEQ ID NO: 35] | 2.33 nM | 91%
Ac-LEGRELVRAK(Ac)I[Aib][Aib]EGK([TTDS-TTDS-TTDS-γGlu-γGlu-γGlu-Palmitoyl])STFS[αMeK]RAK(Ac)-NH2 [peptide of SEQ ID NO: 23] | 11.1 nM | 92%
Ac-LEGRERVRAK(Ac)I[Aib][Aib]EGK([TTDS-TTDS-TTDS-γGlu-γGlu-γGlu-Palmitoyl])STFS[αMeK]RAK(Ac)-NH2 [peptide of SEQ ID NO: 27] | 1.8 nM | 98%
Ac-LEGREFVRAK(Ac)I[Aib][Aib]EGK([TTDS-TTDS-TTDS-γGlu-γGlu-γGlu-Palmitoyl])STFS[αMeK]RAK(Ac)-NH2 [peptide of SEQ ID NO: 24] | 36.4 nM | 100%
Ac-LEGREKVRAK(Ac)I[Aib][Aib]EGK([TTDS-TTDS-TTDS-γGlu-γGlu-γGlu-Palmitoyl])STFS[αMeK]RAK(Ac)-NH2 [peptide of SEQ ID NO: 3] | 0.34 nM | 97%
Ac-LEGREKVRAK(Ac)I[Aib][Aib]EGK([TTDS-TTDS-TTDS-γGlu-γGlu-γGlu-Stearoyl])STWS[αMeK]RAK(Ac)-NH2 [peptide of SEQ ID NO: 30] | 0.21 nM | 89%
Ac-LEGREKVRAK(Ac)I[Aib][Aib]EGK([AEEA-AEEA-AEEA-AEEA-γGlu-γGlu-γGlu-Stearoyl])STWS[Aib]RKK(Ac)-NH2 (SMILES CCCCCCCCCCCCCCCCCC(=O)N[C@@H](CCC(=O)N[C@@H](CCC(=O)N[C@@H](CCC(=O)NCCOCCOCC(=O)NCCOCCOCC(=O)NCCOCCOCC(=O)NCCOCCOCC(=O)NCCCC[C@H](NC(=O)CNC(=O)[C@H](CCC(=O)O)NC(=O)C(C)(C)NC(=O)C(C)(C)NC(=O)[C@@H](NC(=O)[C@H](CCCCNC(C)=O)NC(=O)[C@H](C)NC(=O)[C@H](CCCNC(=N)N)NC(=O)[C@@H](NC(=O)[C@H](CCCCN)NC(=O)[C@H](CCC(=O)O)NC(=O)[C@H](CCCNC(=N)N)NC(=O)CNC(=O)[C@H](CCC(=O)O)NC(=O)[C@H](CC(C)C)NC(C)=O)C(C)C)[C@@H](C)CC)C(=O)N[C@@H](CO)C(=O)N[C@H](C(=O)N[C@@H](Cc1c[nH]c2ccccc12)C(=O)N[C@@H](CO)C(=O)NC(C)(C)C(=O)N[C@@H](CCCNC(=N)N)C(=O)N[C@@H](CCCCN)C(=O)N[C@@H](CCCCNC(C)=O)C(N)=O)[C@@H](C)O)C(=O)O)C(=O)O)C(=O)O) [peptide of SEQ ID NO: 21] | 0.65 nM | 93%
LEGREKVRAXIXXEGXSTFSXRAX (Ac-L-E-G-R-E-K-V-R-A-K(Ac)-I-Aib-Aib-E-G-K(PEG2DGA-PEG2DGA-PEG2DGA-gE-gE-gE-Palm)-S-T-F-S-Mly-R-A-K(Ac)-NH2) [peptide of SEQ ID NO: 22] | 1 nM | 92%
Ac-LEGREKVRAK(Ac)I[Aib][Aib]EGK([TTDS-TTDS-γGlu-γGlu-γGlu-Palmitoyl])STWS[Aib]RKK(Ac)-NH2 [peptide of SEQ ID NO: 4] | 1.5 nM | 89%
Ac-LEGREQVRAK(Ac)I[Aib][Aib]EGK([TTDS-TTDS-TTDS-γGlu-γGlu-γGlu-Palmitoyl])STFS[αMeK]RAK(Ac)-NH2 [peptide of SEQ ID NO: 25] | 28.7 nM | 100%
Ac-LEGREKVRAK(Ac)I[Aib][Aib]EGK([TTDS-TTDS-γGlu-γGlu-γGlu-Stearoyl])STFS[αMeK]RAK(Ac)-NH2 [peptide of SEQ ID NO: 34] | 0.14 nM | 90%
Ac-LEGREKVRAK(Ac)I[Aib][Aib]EGK([TTDS-TTDS-γGlu-γGlu-γGlu-Palmitoyl])STWS[dK]RKK(Ac)-NH2 [peptide of SEQ ID NO: 18] | 1.54 nM | 92%
Ac-LEGREKVRAK(Ac)I[Aib][Aib]EGK([TTDS-TTDS-TTDS-γGlu-γGlu-γGlu-Stearoyl])STWS[Aib]RKK(Ac)-NH2 [peptide of SEQ ID NO: 20] | 0.15 nM | 96%
Ac-LEGREFVRAK(Ac)I[Aib][Aib]EGK([TTDS-TTDS-TTDS-γGlu-γGlu-γGlu-Palmitoyl])STWS[Aib]RRK(Ac)-NH2 [peptide of SEQ ID NO: 39] | 8.7 nM | 93%
Ac-LEGREKVRAK(Ac)I[Aib][Aib]EGK([TTDS-TTDS-TTDS-γGlu-γGlu-γGlu-Palmitoyl])STFS[Dlys]RAK(Ac)-NH2 [peptide of SEQ ID NO: 36] | 3.6 nM | 93%
Ac-LEGRERVRAK(Ac)I[Aib][Aib]EGK([TTDS-TTDS-TTDS-γGlu-γGlu-γGlu-Palmitoyl])STWS[Aib]RRK(Ac)-NH2 [peptide of SEQ ID NO: 31] | 0.19 nM | –
Ac-LEGREKVRAK(Ac)I[Aib][Aib]EGK([AEEA-AEEA-AEEA-AEEA-γGlu-γGlu-γGlu-Stearoyl])STFS[αMeK]RAK(Ac)-NH2 (SMILES CCCCCCCCCCCCCCCCCC(=O)N[C@@H](CCC(=O)N[C@@H](CCC(=O)N[C@@H](CCC(=O)NCCOCCOCC(=O)NCCOCCOCC(=O)NCCOCCOCC(=O)NCCOCCOCC(=O)NCCCC[C@H](NC(=O)CNC(=O)[C@H](CCC(=O)O)NC(=O)C(C)(C)NC(=O)C(C)(C)NC(=O)[C@@H](NC(=O)[C@H](CCCCNC(C)=O)NC(=O)[C@H](C)NC(=O)[C@H](CCCNC(=N)N)NC(=O)[C@@H](NC(=O)[C@H](CCCCN)NC(=O)[C@H](CCC(=O)O)NC(=O)[C@H](CCCNC(=N)N)NC(=O)CNC(=O)[C@H](CCC(=O)O)NC(=O)[C@H](CC(C)C)NC(C)=O)C(C)C)[C@@H](C)CC)C(=O)N[C@@H](CO)C(=O)N[C@H](C(=O)N[C@@H](Cc1ccccc1)C(=O)N[C@@H](CO)C(=O)N[C@@](C)(CCCCN)C(=O)N[C@@H](CCCNC(=N)N)C(=O)N[C@@H](C)C(=O)N[C@@H](CCCCNC(C)=O)C(N)=O)[C@@H](C)O)C(=O)O)C(=O)O)C(=O)O) [peptide of SEQ ID NO: 26] | 0.43 nM | 96%
Ac-LEGREKVRAK(Ac)I[Aib][Aib]EGK([AEEA-AEEA-AEEA-γGlu-γGlu-γGlu-Palmitoyl])STWS[Aib]RKK(Ac)-NH2 (SMILES CCCCCCCCCCCCCCCC(=O)N[C@@H](CCC(=O)N[C@@H](CCC(=O)N[C@@H](CCC(=O)NCCOCCOCC(=O)NCCOCCOCC(=O)NCCOCCOCC(=O)NCCCC[C@H](NC(=O)CNC(=O)[C@H](CCC(=O)O)NC(=O)C(C)(C)NC(=O)C(C)(C)NC(=O)[C@@H](NC(=O)[C@H](CCCCNC(C)=O)NC(=O)[C@H](C)NC(=O)[C@H](CCCNC(=N)N)NC(=O)[C@@H](NC(=O)[C@H](CCCCN)NC(=O)[C@H](CCC(=O)O)NC(=O)[C@H](CCCNC(=N)N)NC(=O)CNC(=O)[C@H](CCC(=O)O)NC(=O)[C@H](CC(C)C)NC(C)=O)C(C)C)[C@@H](C)CC)C(=O)N[C@@H](CO)C(=O)N[C@H](C(=O)N[C@@H](Cc1c[nH]c2ccccc12)C(=O)N[C@@H](CO)C(=O)NC(C)(C)C(=O)N[C@@H](CCCNC(=N)N)C(=O)N[C@@H](CCCCN)C(=O)N[C@@H](CCCCNC(C)=O)C(N)=O)[C@@H](C)O)C(=O)O)C(=O)O)C(=O)O) [peptide of SEQ ID NO: 19] | 11.5 nM | 94%
LEGREKVRAXIXXEGXSTFSXRAX (Ac-L-E-G-R-E-K-V-R-A-K(Ac)-I-Aib-Aib-E-G-K(PEG2DGA-PEG2DGA-PEG2DGA-gE-gE-gE-Stea)-S-T-F-S-Mly-R-A-K(Ac)-NH2) [peptide of SEQ ID NO: 32] | 0.1 nM | 97%
Ac-LEGRELVRAK(Ac)I[Aib][Aib]EGK([TTDS-TTDS-TTDS-γGlu-γGlu-γGlu-Palmitoyl])STWS[Aib]RRK(Ac)-NH2 [peptide of SEQ ID NO: 37] | 5.6 nM | 98%
Ac-LEGREKVR[Aib]K(Ac)I[Aib][Aib]EGK([TTDS-TTDS-TTDS-γGlu-γGlu-γGlu-Palmitoyl])STFS[αMeK]RAK(Ac)-NH2 [peptide of SEQ ID NO: 29] | 1.6 nM | 88%
Ac-LEGRE[hLys]VRAK(Ac)I[Aib][Aib]EGK([TTDS-TTDS-TTDS-γGlu-γGlu-γGlu-Palmitoyl])STFS[αMeK]RAK(Ac)-NH2 [peptide of SEQ ID NO: 28] | 0.62 nM | 88%
